The supplement of paper PMC9112550, “Optimization of the antimicrobial peptide Bac7 by deep mutational scanning” (BMC Biology, 2022)

Tested on: Escherichia coli TOP10
Assay: shrunken log2 fold change of peptide-encoding DNA abundance (4.5 h post-induction vs induction); higher = less antimicrobial activity (less host growth inhibition)
Conditions: time post-induction: 4.5 h; library: site-saturation at positions 5, 18, 19, 20
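Further: peptides expressed intracellularly from a pBAD plasmid library in pooled LB shake-flask culture, induced with 0.3% L-arabinose, DNA abundance read by NGS, three biological replicates, DESeq2 with apeglm shrinkage.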

Sequence	shrunken log2 fold change
RRIRPRPPRLPRPRPRPAHNPRP	-0.114
RRIRERPPRLPRPRPRPMSIPRP	-0.239
RRIRNRPPRLPRPRPRPLYNPRP	-0.0372
RRIRIRPPRLPRPRPRPCNDPRP	-0.0787
RRIRVRPPRLPRPRPRPLFFPRP	-0.121
RRIRSRPPRLPRPRPRPHYNPRP	-1.04
RRIRMRPPRLPRPRPRPNWIPRP	-0.118
RRIRPRPPRLPRPRPRPISMPRP	-0.0272
RRIRFRPPRLPRPRPRPMGSPRP	-0.22
RRIRQRPPRLPRPRPRPGKWPRP	0.362
RRIRMRPPRLPRPRPRPQSLPRP	-0.0682
RRIRCRPPRLPRPRPRPISDPRP	-0.237
RRIRWRPPRLPRPRPRPVYMPRP	-0.476
RRIRRRPPRLPRPRPRPMPSPRP	0.136
RRIRQRPPRLPRPRPRPQQAPRP	-0.0512
RRIRARPPRLPRPRPRPFHTPRP	-0.0492
RRIRKRPPRLPRPRPRPVNQPRP	-0.145
RRIRIRPPRLPRPRPRPCQEPRP	-0.119
RRIRRRPPRLPRPRPRPCCEPRP	0.122
RRIRIRPPRLPRPRPRPSNLPRP	-0.931
RRIRERPPRLPRPRPRPVAKPRP	0.197
RRIRHRPPRLPRPRPRPIQSPRP	-0.0918
RRIRHRPPRLPRPRPRPLWGPRP	-0.107
RRIRGRPPRLPRPRPRPLPYPRP	-0.086
RRIRFRPPRLPRPRPRPFLLPRP	-0.696

Sequence	shrunken log2 fold change
RRIRERPPRLPRPRPRPEEPPRP	0.139
RRIRSRPPRLPRPRPRPNATPRP	0.551
RRIRHRPPRLPRPRPRPWRGPRP	0.115
RRIRFRPPRLPRPRPRPMTDPRP	-0.269
RRIRIRPPRLPRPRPRPDNAPRP	-0.717
RRIRDRPPRLPRPRPRPPRIPRP	0.185
RRIRNRPPRLPRPRPRPGNMPRP	-1.16
RRIRMRPPRLPRPRPRPNRGPRP	0.218
RRIRLRPPRLPRPRPRPGVYPRP	-0.221
RRIRLRPPRLPRPRPRPRNQPRP	-0.204
RRIRKRPPRLPRPRPRPQIPPRP	-0.0346
RRIRRRPPRLPRPRPRPHCRPRP	0.103
RRIRSRPPRLPRPRPRPQLNPRP	-0.248
RRIRRRPPRLPRPRPRPVMHPRP	0.0548
RRIRTRPPRLPRPRPRPKLQPRP	-0.114
RRIRGRPPRLPRPRPRPNDYPRP	-0.0119
RRIRMRPPRLPRPRPRPAQGPRP	3.7
RRIRLRPPRLPRPRPRPVVHPRP	0.93
RRIRYRPPRLPRPRPRPHLWPRP	-0.255
RRIRSRPPRLPRPRPRPPVSPRP	0.308
RRIRYRPPRLPRPRPRPTQDPRP	0.542
RRIRDRPPRLPRPRPRPEFYPRP	0.475
RRIRCRPPRLPRPRPRPYPRPRP	-0.00439
RRIRSRPPRLPRPRPRPSKKPRP	-0.334
RRIRDRPPRLPRPRPRPMETPRP	-0.00149

Sequence	shrunken log2 fold change
RRIRRRPPRLPRPRPRPNKEPRP	-0.0865
RRIRKRPPRLPRPRPRPIEQPRP	-0.0195
RRIRQRPPRLPRPRPRPGIHPRP	0.0177
RRIRIRPPRLPRPRPRPFLVPRP	-0.759
RRIRPRPPRLPRPRPRPLFSPRP	-0.103
RRIRARPPRLPRPRPRPIDVPRP	-0.641
RRIRYRPPRLPRPRPRPEQHPRP	-0.0567
RRIRRRPPRLPRPRPRPKGFPRP	-0.12
RRIRDRPPRLPRPRPRPISIPRP	0.0218
RRIRCRPPRLPRPRPRPYGCPRP	-0.00123
RRIRHRPPRLPRPRPRPNEEPRP	-0.00146
RRIRWRPPRLPRPRPRPAICPRP	-0.0928
RRIRKRPPRLPRPRPRPECKPRP	0.506
RRIRTRPPRLPRPRPRPQTEPRP	-0.0173
RRIRSRPPRLPRPRPRPWGRPRP	0.196
RRIRSRPPRLPRPRPRPTNEPRP	0.308
RRIRDRPPRLPRPRPRPWLHPRP	-0.00955
RRIRIRPPRLPRPRPRPYPPPRP	-0.818
RRIRKRPPRLPRPRPRPCILPRP	-0.283
RRIRQRPPRLPRPRPRPSDSPRP	-0.0885
RRIRMRPPRLPRPRPRPLCLPRP	-0.0538
RRIRARPPRLPRPRPRPWNVPRP	-0.181
RRIRIRPPRLPRPRPRPCNMPRP	-0.0732
RRIRWRPPRLPRPRPRPHQHPRP	-0.214
RRIRGRPPRLPRPRPRPFHCPRP	-0.36

Sequence	shrunken log2 fold change
RRIRSRPPRLPRPRPRPTPAPRP	0.299
RRIRQRPPRLPRPRPRPPDIPRP	-0.0497
RRIRLRPPRLPRPRPRPAWEPRP	0.185
RRIRYRPPRLPRPRPRPAPCPRP	-0.0799
RRIRKRPPRLPRPRPRPELGPRP	0.823
RRIRMRPPRLPRPRPRPRQRPRP	1.79
RRIRMRPPRLPRPRPRPNNVPRP	-0.0591
RRIRLRPPRLPRPRPRPQAPPRP	0.138
RRIRQRPPRLPRPRPRPINFPRP	0.0669
RRIRGRPPRLPRPRPRPWQNPRP	0.041
RRIRGRPPRLPRPRPRPIDEPRP	0.433
RRIRMRPPRLPRPRPRPHFYPRP	-0.115
RRIRDRPPRLPRPRPRPYLDPRP	-0.0026
RRIRCRPPRLPRPRPRPGQIPRP	0.165
RRIRDRPPRLPRPRPRPRFIPRP	-0.233
RRIRPRPPRLPRPRPRPWRGPRP	0.344
RRIRTRPPRLPRPRPRPVSTPRP	0.137
RRIRHRPPRLPRPRPRPRFHPRP	-0.162
RRIRQRPPRLPRPRPRPSWWPRP	-0.176
RRIRDRPPRLPRPRPRPTYWPRP	0.01
RRIRYRPPRLPRPRPRPRTHPRP	-0.318
RRIRYRPPRLPRPRPRPESEPRP	-0.0162
RRIRFRPPRLPRPRPRPAYHPRP	-0.00712
RRIRRRPPRLPRPRPRPYWGPRP	0.133
RRIRKRPPRLPRPRPRPASEPRP	0.879

Sequence	shrunken log2 fold change
RRIRWRPPRLPRPRPRPPMWPRP	0.108
RRIRHRPPRLPRPRPRPERVPRP	0.228
RRIRFRPPRLPRPRPRPVCCPRP	-0.0027
RRIRCRPPRLPRPRPRPLEAPRP	0.203
RRIRWRPPRLPRPRPRPNNIPRP	-0.779
RRIRARPPRLPRPRPRPMKQPRP	0.0535
RRIRLRPPRLPRPRPRPSDAPRP	0.0959
RRIRCRPPRLPRPRPRPYFDPRP	-0.446
RRIRTRPPRLPRPRPRPYLNPRP	-0.484
RRIRRRPPRLPRPRPRPIRRPRP	-0.0312
RRIRHRPPRLPRPRPRPGIMPRP	-0.566
RRIRQRPPRLPRPRPRPFNEPRP	-0.03
RRIRQRPPRLPRPRPRPTNKPRP	-0.579
RRIRQRPPRLPRPRPRPIMMPRP	-0.0173
RRIRKRPPRLPRPRPRPGQLPRP	0.236
RRIRVRPPRLPRPRPRPPPKPRP	1.11
RRIRCRPPRLPRPRPRPEPKPRP	0.104
RRIRRRPPRLPRPRPRPFQFPRP	-0.0742
RRIRRRPPRLPRPRPRPMIHPRP	-0.0319
RRIRRRPPRLPRPRPRPPYFPRP	0.442
RRIRLRPPRLPRPRPRPDPCPRP	-0.0403
RRIRPRPPRLPRPRPRPGIRPRP	0.105
RRIRCRPPRLPRPRPRPTWVPRP	0.342
RRIRIRPPRLPRPRPRPVARPRP	0.223
RRIRWRPPRLPRPRPRPHRCPRP	0.000478
